What all share (assay type): binding
For test [1], the target named is T1, full-length ALK receptor (Homo sapiens, UniProt Q9UM73).
T1 construct: endogenous in cells
Kind of test: Immunoprecipitation of ALK from neuroblastoma cell lysates. As to conditions: immunoblotting with commercial anti-ALK C-terminal antibody. The text has this: Cell lysates from the indicated neuroblastoma cell lines were subjected to immunoprecipitation (IP) using 8G7 and subsequently to immunoblotting analysis using the commercial anti-ALK C-terminal antibody.
A general note: A western blot detects proteins with antibodies after separation by electrophoresis.

For test [2], the target named is ALK (Homo sapiens, UniProt Q9UM73). Kind of test: Western blot analysis of ALK in cell lysates and conditioned media. On the set-up: endogenous in cells; host or cells: human neuroblastoma lines (NGP, SH-SY5Y, Kelly and others). The text has this: (A) Western blot analysis of ALK in Kelly and SHEP neuroblastoma cells overexpressing GFP and mutated ALK using the mAb-7 and 8G7 anti-ALK antibodies. The mAb-7 antibody was developed at the Vigny laboratory (INSERM, Unité 706/Université Pierre et Marie Curie, Paris F-75005, France) (Moog-Lutz et al, 2005; PMID: 15886198) and obtained through a Materials Transfer Agreement. (B) Western blot analysis of ALK expression in various non-neuroblastoma cell lines: H1373 (human […]), HeLa (cervical cancer), NIH-3T3 (transformed mouse fibroblast cells) using 8G7 and C26G7 (rabbit monoclonal C-terminal anti-ALK antibody; Cell Signaling Technology; Cat #3333; RRID:AB_836862) anti-ALK antibodies.
The three HPLC-purified monoclonal antibodies (5H3, 7F7 and 8G7) all of the IgG1 subtype, were tested for their ability to bind to ALK in neuroblastoma cells expressing ALK. Both cell lysates and supernatants from cells grown with and without serum (to increase the expression of ALK) were tested by western blotting. […] (A) Western blot analysis of the indicated hybridoma clones in neuroblastoma cell lines expressing WT (NGP) and mutated (SHSY5Y, Kelly) ALK. NIH3T3 cells were used as controls. (B) Western blot analysis of conditioned media from NGP neuroblastoma and 293T cells engineered to express the WT ALK receptor, with the three ALK mAbs showing binding with the shed ALK extracellular domain. […]
Cell lysates were prepared in NP-40 buffer (Invitrogen) containing complete protease inhibitor (Roche), phosphatase inhibitor (Roche) and phenylmethylsulfonyl fluoride (PMSF). Lysates were incubated on ice for 20 min and centrifuged at 16,000 g for 15 min at 4° C. Protein concentrations of the supernatants were determined with the DC protein assay kit (Bio-Rad). Protein samples were denatured using NuPAGE LDS sample buffer (Invitrogen) and NuPAGE sample reducing agent (Invitrogen). Proteins were then separated on precast 4-12% Bis-Tris gels (Invitrogen) and transferred to nitrocellulose membranes (Bio-Rad). After blocking in blocking buffer (5% dry milk in TBS with 0.2% Tween-20), membranes were incubated with the primary antibody overnight at 4 °C, washed three times with TBST buffer, chemiluminescent detection performed with the appropriate secondary antibodies and developed using Genemate Blue ultra-autoradiography film (VWR).

Test [3] has as its target T2, ALK receptor (Homo sapiens, UniProt Q9UM73, F1174L).
T2 construct: expressed in transfected cells; host or cells: SHEP neuroblastoma cells
Kind of test: Immunofluorescence detection of ALK. The text has this: (A) IF images (40×) of NGP neuroblastoma cells expressing wild type ALK stained with the 8G7 antibody. A 1:100 antibody dilution was used. […] The last plasmid serves as a negative control similar to NIH3T3-MSCV cells in which the vector only is expressed.
Immunofluorescence detection of ALK with 8G7 and 7F7 antibodies in SHEP NB cells engineered to express the ALKF1174L mutation. Staining with the M13 antibody obtained from the Vigny laboratory under an MTA is shown for comparison (Moog-Lutz et al, 2005). Cells expressing the vector only (SHEP) were used as controls. Cells were stained with a 1:100 dilution of antibody. Images were captured at 40× with a Zeiss AXIO Imager Z1 fluorescence microscope.
Cells (0.5×10^6 per well) were seeded into six-well plates and grown on glass coverslips for 24 hr. before fixation in 4% paraformaldehyde in PBS for 15 min at room temperature (RT), washed with PBS, permeabilized in 0.1% Triton X-100, and blocked with PBS containing 0.05% Tween-20 and 5% BSA for 1 hr. to block nonspecific binding. Then, cells were incubated with the 8G7 antibody (1:100) overnight at 4° C. After washing with PBS, cells were incubated with AlexaFluor 568-conjugated secondary antibody for 1 hr. at 25° C. Images were collected on a Zeiss AXIO Imager Z1 fluorescence microscope. […] After 24 hours, cells were washed once in PBS, fixed in 4% paraformaldehyde in PBS, washed, permeabilized in 0.1% Triton X-100, and blocked in PBS containing 10% horse serum. […] The next day, cells were washed, incubated in goat anti-rabbit IgG secondary antibody (1:1000) for 1 hr. washed, and incubated in Streptavidin-TexasRed (1:1000) for 1 hr. Cover slips were mounted onto slides using mounting medium containing DAPI. Images were collected on a Zeiss AXIO Imager Z1 fluorescence microscope.

Test [4] has as its target T3, ALK extracellular fragment (Homo sapiens, UniProt Q9UM73).
T3 construct: conditioned media containing the shed ALK (ALK 1-654) ECD fragment; from tissue; host or cells: serum of neuroblastoma patients
Nature of the test: Sandwich ELISA of shed ALK ECD in patient sera. As to conditions: sera of patients with ALK-expressing neuroblastoma. The text has this:
Detection of the purified ALK-ECD protein using 8G7 (detection) and 7F7 (capture) anti-ALK antibodies by sandwich ELISA. (A) Standard curve showing the gradual increase in signal with increasing concentrations of the ALK-ECD protein in the media of NGP cells that express cleaved ALK. Quantification is shown below. (B) ELISA of the shed ALK ECD protein in sera from patients with neuroblastoma. Ample diluent buffer was used to dilute the serum samples, Media represents Dulbecco's Modified Eagle media in which human embryonic kidney 293T cells were grown, 293T media, conditioned media from 293T cells; ALK ECD 293T media, media collected from 293T cells in which the ALK-ECD-mFc protein was overexpressed.
We developed a sandwich ELISA technique where two ALK antibodies (for example, 5H3 or 7F7) can be used to capture the ALK extracellular fragment (antigen), and another antibody, such as the 8G7 antibody, can be used to detect the captured ALK extracellular fragment-5H3 or 7F7 complex. The different epitope binding sites of these antibodies on the ALK extracellular fragment protein allow for the development of the sandwich ELISA technique for the detection of the cleaved or shed ALK extracellular fragment in patient serum samples (FIG. 18). […]
A general note: In an ELISA, binding on a coated surface is turned into a signal by an enzyme label.

“Also recorded” adds a separate entry of the source.

T2 sequence (Q9UM73 19-1620 F1174L): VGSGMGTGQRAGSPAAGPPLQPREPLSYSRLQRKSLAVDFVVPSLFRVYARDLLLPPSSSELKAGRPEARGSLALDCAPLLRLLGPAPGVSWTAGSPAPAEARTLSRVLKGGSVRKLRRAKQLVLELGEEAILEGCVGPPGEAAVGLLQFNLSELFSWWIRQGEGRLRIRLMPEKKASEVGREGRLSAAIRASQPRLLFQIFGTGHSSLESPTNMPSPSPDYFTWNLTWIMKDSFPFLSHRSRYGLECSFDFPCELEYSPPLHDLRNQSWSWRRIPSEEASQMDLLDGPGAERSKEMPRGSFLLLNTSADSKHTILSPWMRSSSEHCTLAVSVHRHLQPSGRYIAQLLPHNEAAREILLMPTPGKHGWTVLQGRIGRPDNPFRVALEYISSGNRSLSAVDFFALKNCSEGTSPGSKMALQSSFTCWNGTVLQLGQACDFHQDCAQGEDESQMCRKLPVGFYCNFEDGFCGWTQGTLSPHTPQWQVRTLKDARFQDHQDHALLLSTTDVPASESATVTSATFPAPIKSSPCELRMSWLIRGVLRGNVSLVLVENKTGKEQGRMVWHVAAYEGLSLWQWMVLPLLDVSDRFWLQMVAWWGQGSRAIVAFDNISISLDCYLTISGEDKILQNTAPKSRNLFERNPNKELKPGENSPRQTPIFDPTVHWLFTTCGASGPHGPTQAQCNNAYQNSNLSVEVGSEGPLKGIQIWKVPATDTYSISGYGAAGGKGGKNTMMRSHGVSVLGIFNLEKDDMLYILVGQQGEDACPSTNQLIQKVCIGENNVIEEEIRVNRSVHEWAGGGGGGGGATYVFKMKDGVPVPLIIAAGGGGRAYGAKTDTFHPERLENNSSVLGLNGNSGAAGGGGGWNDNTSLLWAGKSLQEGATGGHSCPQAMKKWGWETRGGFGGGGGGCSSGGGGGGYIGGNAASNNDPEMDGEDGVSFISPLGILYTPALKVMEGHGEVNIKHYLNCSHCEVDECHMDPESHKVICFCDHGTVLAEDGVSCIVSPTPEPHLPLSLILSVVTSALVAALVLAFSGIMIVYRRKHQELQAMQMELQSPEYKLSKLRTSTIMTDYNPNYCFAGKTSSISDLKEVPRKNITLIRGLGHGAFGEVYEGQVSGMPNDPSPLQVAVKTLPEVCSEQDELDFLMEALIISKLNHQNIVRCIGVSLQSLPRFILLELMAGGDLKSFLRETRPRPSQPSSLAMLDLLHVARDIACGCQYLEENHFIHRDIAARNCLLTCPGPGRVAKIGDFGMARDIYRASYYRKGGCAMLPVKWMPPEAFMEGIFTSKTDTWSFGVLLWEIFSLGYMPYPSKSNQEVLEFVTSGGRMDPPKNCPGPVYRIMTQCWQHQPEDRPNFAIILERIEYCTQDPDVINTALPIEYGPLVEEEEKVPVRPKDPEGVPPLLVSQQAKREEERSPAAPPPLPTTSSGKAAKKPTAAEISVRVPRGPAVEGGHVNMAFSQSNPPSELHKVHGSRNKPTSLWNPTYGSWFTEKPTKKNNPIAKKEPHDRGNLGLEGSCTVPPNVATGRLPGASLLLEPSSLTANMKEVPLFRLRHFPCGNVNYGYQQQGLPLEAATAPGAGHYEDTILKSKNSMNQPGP
T1 sequence (Q9UM73 19-1620): as the sequence (Q9UM73 19-1620 F1174L) above, with L1156F counted along it
T3 sequence (Q9UM73 19-654): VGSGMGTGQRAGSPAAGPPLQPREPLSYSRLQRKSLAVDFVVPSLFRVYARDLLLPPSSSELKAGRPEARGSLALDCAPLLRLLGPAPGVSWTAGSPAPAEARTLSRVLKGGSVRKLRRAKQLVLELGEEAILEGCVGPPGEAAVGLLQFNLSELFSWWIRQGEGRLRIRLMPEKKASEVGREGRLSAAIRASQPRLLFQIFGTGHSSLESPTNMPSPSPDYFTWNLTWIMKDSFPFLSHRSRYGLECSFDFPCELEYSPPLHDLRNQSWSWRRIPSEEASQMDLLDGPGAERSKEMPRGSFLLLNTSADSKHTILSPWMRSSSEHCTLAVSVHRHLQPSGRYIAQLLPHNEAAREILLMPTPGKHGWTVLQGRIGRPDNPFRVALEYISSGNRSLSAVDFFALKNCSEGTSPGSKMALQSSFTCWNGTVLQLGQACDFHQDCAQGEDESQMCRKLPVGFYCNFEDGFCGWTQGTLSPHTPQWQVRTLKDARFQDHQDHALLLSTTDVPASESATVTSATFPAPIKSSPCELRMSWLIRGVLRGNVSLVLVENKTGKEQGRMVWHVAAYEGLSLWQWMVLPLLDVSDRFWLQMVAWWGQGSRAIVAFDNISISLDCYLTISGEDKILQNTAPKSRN

B1: 8G7: murine monoclonal IgG1 anti-ALK antibody to the N-terminal ECD of human ALK; VH SEQ ID NO: 3, VL SEQ ID NO: 4 (antibody, V domains shown)
VH: QVQLQQSGAELVRPGASVTLSCKASGYTFTDYEMHWVKQTPVHGLEWIGAIDPETGGSAYNQKFKAKAILTADRSSSTAYMELRSLTSEDSAVYYCTRTRYYGSSPAMDYWGQGTSVTVSS
VL: DIQMTQTTSSLSASLGDRVTISCSASQGIGNYLNWYQQKPDGTVKLLIYYTSSLHSGVPSRFSGSGSGTDYSLTISNLEPEDIATYYCQQYSKLPYTFGGGTKLEIK
As to B1, in test [1], the “immunoprecipitation of ALK” value is on record as “can immunoprecipitate ALK; also recorded: immunoprecipitated only the full-length 220 kDa form of ALK”. For the same molecule, in test [2] (cell lysates of neuroblastoma cells expressing ALK), the “ALK protein recognized by western blotting in cell lysates” value is reported as “recognized a 220 kDa protein in the cell lysates of neuroblastoma cells; also recorded: detected the 220 kDa full-length protein but not the 140 kDa fragment in cell lysates”. The “ALK protein recognized by western blotting in media” value in test [2] (conditioned media of NB cells, shed ECD domain) is reported as “an approximately 100 kDa protein in the media; also recorded: ALK fragment with a molecular mass of approximately 100 kDa was identified in the conditioned media of all five NB cell lines”. Besides, the “recognition of ALK lacking the majority of the ECD in immunofluorescence” value in test [3] (NIH3T3-ALK-del MAM2 to 654 aa, negative control) is “not recognized”. Besides, the “binding to the ALK receptor in immunofluorescence” value in test [3] (SHEP NB cells engineered to express the ALKF1174L mutation, 1:100 dilution of antibody) is “bind to the ALK receptor in immunofluorescence assays”. In addition, the “recognition of ALK at the cell surface” value in test [3] (immunofluorescence, immunocytochemistry and immunohistochemistry) is “recognize ALK at the cell surface by immunofluorescence, immunocytochemistry and immunohistochemistry”. In test [4], the “recognition of circulating ALK extracellular fragment in sera” value is given as “recognize the circulating ALK extracellular fragment in the sera of patients with ALK-expressing neuroblastoma”.

For the origin of these results see patent US20240262917A1, “ANTIBODIES AGAINST ALK AND METHODS OF USE THEREOF” (Dana-Farber Cancer Institute, Inc., priority 2021, published 2024).
